# T1: catalase (Bos taurus, UniProt P00432)
# T1 sequence (P00432 2-527 limits assumed): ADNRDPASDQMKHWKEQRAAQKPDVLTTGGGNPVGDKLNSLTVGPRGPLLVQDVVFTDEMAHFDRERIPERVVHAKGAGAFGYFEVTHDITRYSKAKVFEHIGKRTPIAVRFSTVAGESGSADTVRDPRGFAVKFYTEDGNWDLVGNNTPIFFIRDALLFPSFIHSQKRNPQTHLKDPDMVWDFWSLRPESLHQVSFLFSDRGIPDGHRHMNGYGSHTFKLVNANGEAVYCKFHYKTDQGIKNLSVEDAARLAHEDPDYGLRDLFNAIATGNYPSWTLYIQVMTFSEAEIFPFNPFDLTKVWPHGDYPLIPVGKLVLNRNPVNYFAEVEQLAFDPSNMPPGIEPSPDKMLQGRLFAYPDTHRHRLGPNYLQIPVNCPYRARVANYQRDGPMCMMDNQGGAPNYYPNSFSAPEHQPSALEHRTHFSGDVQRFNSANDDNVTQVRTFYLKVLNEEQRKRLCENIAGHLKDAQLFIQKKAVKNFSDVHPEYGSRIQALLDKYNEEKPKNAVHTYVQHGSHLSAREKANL
# T2: ribonuclease A (Bos taurus, UniProt P61823)
# T2 sequence (P61823 27-150): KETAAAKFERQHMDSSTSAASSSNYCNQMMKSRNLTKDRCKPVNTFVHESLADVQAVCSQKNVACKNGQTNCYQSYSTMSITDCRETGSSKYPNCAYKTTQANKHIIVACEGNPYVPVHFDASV
# B1: RNAse: native ribonuclease A (protein, UniProt P61823 27-150, looked up)
# Ribonuclease pancreatic: T2 sequence (P61823 27-150)
# B2: POZ/RNAse: ribonuclease A modified with M-PEOZ-O—CH2—CO2—NHS (6 kDa) (conjugate, UniProt P61823 27-150, looked up)
# Ribonuclease pancreatic: T2 sequence (P61823 27-150)
# modifications: M-PEOZ 6 kDa conjugate
# B3: PEG/RNAse: ribonuclease A modified with PEG-O—CH2—CO2—NHS (5.5 kDa) (conjugate, UniProt P61823 27-150, looked up)
# Ribonuclease pancreatic: T2 sequence (P61823 27-150)
# modifications: PEG 5.5 kDa conjugate
# Assays:
# catalase = target: T1, catalase; assay: Catalase enzymatic activity (method of Beers and Sizer); assay type: biochemical; conditions: native enzyme
# From the text: (§1) To evaluate the different influence on enzyme properties as a function of polymerization with POZ derivatives of the present disclosure and corresponding PEG polymers known in the art, three different enzymes, ribonuclease A, uricase and catalase, were modified with M-PEOZ-O—CH2—CO2—NHS (6 kDa) and PEG-O—CH2—CO2—NHS (5.5 kDa). To facilitate the comparison, each enzyme was modified under similar conditions regarding polymer to enzyme ratios, buffer, pH and reaction temperature.
# The conditions of enzyme modification with the POZ and PEG polymers described above were 0.2 M, pH 8.5 in borate buffer. The amount of POZ and PEG polymer used for modification was calculated on the basis of calculated total available amino groups in each enzyme. […]
# To the three enzymes solutions (2.5 mg/ml) M-POZ-O—CH2—CO2—NHS or PEG-O—CH2—CO2—NHS solid were added at room temperature at a molar ratio of polymer to protein amino groups of 2/1 and 1/1 respectively. Protein concentration of the native forms of ribonuclease, uricase and catalase was evaluated spectrophotometrically using molar extinction coefficients of 9.45×10^3, 13×10^3 and 1.67×10^5 at 280 nm, respectively. […]
# The degree of protein modification was evaluated colorimetrically by TNBS assay and expressed as percentage of conjugate amino groups to the total ones present on the protein. […]
# ribonuclease A = target: T2, ribonuclease A; assay: Ribonuclease enzymatic activity (method of Crook et al.); assay type: biochemical
# From the text: as §1
# The conditions of enzyme modification with the POZ and PEG polymers described above were 0.2 M, pH 8.5 in borate buffer. The amount of POZ and PEG polymer used for modification was calculated on the basis of calculated total available amino groups in each enzyme. For example, ribonuclease A has a molecular weight of 13.7 kDa and 11 available amino groups; uricase has a molecular weight of 130 kDa and 100 available amino groups; and catalase has a molecular weight of 240 kDa and 112 available amino groups.
# To the three enzymes solutions (2.5 mg/ml) M-POZ-O—CH2—CO2—NHS or PEG-O—CH2—CO2—NHS solid were added at room temperature at a molar ratio of polymer to protein amino groups of 2/1 and 1/1 respectively. Protein concentration of the native forms of ribonuclease, uricase and catalase was evaluated spectrophotometrically using molar extinction coefficients of 9.45×10^3, 13×10^3 and 1.67×10^5 at 280 nm, respectively. After 30 minutes, polymer-enzyme conjugates were purified from unreacted polymer and n-hydroxysuccinimide by gel filtration chromatography Sephadex G-75 column, with 0.1M phosphate buffer, pH 7.4 as eluent.
# The degree of protein modification was evaluated colorimetrically by TNBS assay and expressed as percentage of conjugate amino groups to the total ones present on the protein. Enzymatic activity of native and modified enzymes was evaluated as follows: ribonuclease activity was assayed by the method of Crook et al. (Biochem J. 1960 February; 74:234-8); uricase activity was determined by the method of Mahler (Anal Biochem. 1970 November; 38(1):65-84); and catalase was assayed according to a method reported by Beers and Sizer (J. Biol. Chem. 1952 March; 195(1):133-40).
Molecule,% activity (catalase) [%],% activity (ribonuclease A; native enzyme) [%],% activity (ribonuclease A; NH2:polymer molar ratio 1:1) [%],% activity (ribonuclease A; NH2:polymer molar ratio 2:1) [%]
Catalase,100,–,–,–
B1,–,100,–,–
B2,–,–,50,30
B3,–,–,15,10

# Source: patent publication US7943141B2, “Activated polyoxazolines and compositions comprising the same” (Serina Therapeutics, Inc., priority 2007, dated 2011)
